{"source": "paper PMC9402430", "about": "“Cryo-EM structure of an active bacterial TIR–STING filament complex” (Nature, 2022)", "molecules": {"B1": {"name": "Sphingobacterium faecium TIR–STING (SfSTING), wild type (enzyme, UniProt A0A2T5Y4G4 1-323, looked up)", "chain": "MKKRIFIGSSSEQLTILNEIVDLLGDDVECIPWTDAFALNKSGLDSLIKQTRLADYSILIATKDDLTKQRGESLTKPRDNVVFEFGLFLGAAGPEKCYLIAEEDTDLPTDLDGITVAKFTRNSGQYNSLDKIVESIRTHLVKIAEMSQLGLLPSTALAIGYYNSFIKRVCEEIHGSECVELEGKKIKVKSFRVDVVIPETLDDNGVGNFTTLYNKRYGLSKATTCTNPALLGTRGFPFHFKVDPPDANQESPVDIHLLDIPSTLSTIVESLKLYLPSNQVGQDFDMDYLEMRELENFAKVLKYLIGRNAATKGYVNVLTNVKL", "notes": "TIR–STING antiphage effector of the S. faecium CBASS operon; also called WT; source: E. coli BL21-CodonPlus(DE3)-RIL, purified (Ni-NTA, Superdex 200 SEC)"}, "B2": {"name": "SfSTING D110A (enzyme, Sphingobacterium faecium, UniProt A0A2T5Y4G4 1-323, looked up)", "chain": "B1 chain with D110A", "notes": "S. faecium TIR–STING (SfSTING) with a substitution of the TIR DD-loop residue that completes the active site of the dimer mate; Mutant of m1; same vector and purification; also called intradimeric contact mutant; source: E. coli BL21-CodonPlus(DE3)-RIL, purified (Ni-NTA, Superdex 200 SEC)"}, "B3": {"name": "SfSTING ΔA36–K41 (TIR BB loop replaced by a glycine-serine linker, D35-GSGG-S42) (enzyme, Sphingobacterium faecium, UniProt A0A2T5Y4G4 1-323, looked up)", "chain": "MKKRIFIGSSSEQLTILNEIVDLLGDDVECIPWTDGSGGSGLDSLIKQTRLADYSILIATKDDLTKQRGESLTKPRDNVVFEFGLFLGAAGPEKCYLIAEEDTDLPTDLDGITVAKFTRNSGQYNSLDKIVESIRTHLVKIAEMSQLGLLPSTALAIGYYNSFIKRVCEEIHGSECVELEGKKIKVKSFRVDVVIPETLDDNGVGNFTTLYNKRYGLSKATTCTNPALLGTRGFPFHFKVDPPDANQESPVDIHLLDIPSTLSTIVESLKLYLPSNQVGQDFDMDYLEMRELENFAKVLKYLIGRNAATKGYVNVLTNVKL", "notes": "S. faecium TIR–STING (SfSTING) in which residues A36–K41 of the TIR BB loop are replaced by GSGG (D35-GSGG-S42); Mutant of m1; also called TIR-to-TIR cross-filament contact mutant; SfSTING TIR mutant; source: E. coli BL21-CodonPlus(DE3)-RIL, purified (Ni-NTA, Superdex 200 SEC)"}}, "key": {"[1]": {"target": "T1, SfSTING (Sphingobacterium faecium TIR–STING) (Sphingobacterium faecium, UniProt A0A2T5Y4G4)", "T1 construct": "gene cap12; full-length TIR-STING; N-terminal 6xHis fusion, modified pET16, E. coli BL21-CodonPlus(DE3)-RIL; homodimer forming filaments", "T1 sequence (A0A2T5Y4G4 1-323)": "B1 chain", "experiment": "fluorescence NADase assay", "assay_type": "biochemical", "settings": "500 uM substrate; 20 uM c-di-GMP activator; 20 mM HEPES-KOH pH 7.5, 100 mM KCl"}, "[2]": {"target": "T1, SfSTING (Sphingobacterium faecium TIR–STING)", "experiment": "cryo-EM structure; EMSA", "settings": "3x molar c-di-GMP (84 uM); STING CDN-binding pocket at dimer interface; activating ligand"}, "[3]": {"target": "the molecule itself", "experiment": "cryo-EM structure; SfSTING 1 mg/ml rapidly mixed with 3× molar 3′,3′-cGAMP (84 μM), a weakly activating ligand; dimers to short oligomers"}, "[4]": {"target": "the molecule itself", "experiment": "cryo-EM structure; SfSTING 1 mg/ml rapidly mixed with 3× molar c-di-GMP (84 μM), frozen within 10 s, 4 °C; second dataset pre-incubated with 1 mM benzamide adenine dinucleotide; dimers to filament (single and antiparallel double filaments)"}, "[5]": {"target": "the molecule itself", "experiment": "negative-stain EM; 1 μM wild-type or mutant SfSTING with 10 μM c-di-GMP, 20 mM HEPES-KOH pH 7.5, 250 mM KCl, 1 mM TCEP, 15 min on ice; dimers to filament"}}, "note": "Numbering of substitutions follows the chain as printed.", "data": [{"molecule": "NC(=O)c1ccc[n+]([C@@H]2O[C@H](COP(=O)(O)OP(=O)(O)OC[C@H]3O[C@@H](n4cnc5c4ncn4ccnc54)[C@H](O)[C@@H]3O)[C@@H](O)[C@H]2O)c1", "note": "[nicotinamide 1,N^6-ethenoadenine dinucleotide]", "values": [{"measurement": "fluorescence NADase assay", "setting": "[1]", "value": "WT* and E95Q* mutant SfSTING consume the ε-NAD substrate within the deadtime"}]}, {"molecule": "Nc1nc2c(ncn2[C@@H]2O[C@@H]3COP(=O)(O)O[C@H]4[C@@H](O)[C@H](n5cnc6c(=O)[nH]c(N)nc65)O[C@@H]4COP(=O)(O)O[C@H]3[C@H]2O)c(=O)[nH]1", "note": "[c-di-GMP]", "values": [{"measurement": "cryo-EM structure; EMSA", "setting": "[2]", "value": "cryo-EM density map of the active SfSTING–c-di-GMP filament complex"}]}, {"molecule": "B1", "values": [{"measurement": "stoichiometry N", "setting": "[3]", "value": "4 to 6 units (dimers)"}, {"measurement": "stoichiometry N", "setting": "[4]", "value": "~85", "unit": "dimer copies"}]}, {"molecule": "B2", "values": [{"measurement": "binding result", "setting": "[5]", "value": "binds"}]}, {"molecule": "B3", "values": [{"measurement": "binding result", "setting": "[5]", "value": "binds"}]}]}
